Reference: paper PMC8604303

Experiments:
[1] = molecular target: C5b-8 (MAC precursor of C5b, C6, C7 and C8) assembled on E. coli (human) (UniProt P01031); assay: flow cytometry on cells; E. coli MG1655 labelled with C5b-7, washed, 10 nM C8 and a concentration range of Cy5-labelled C9 for 30 min; geoMFI
[2] = molecular target: C5b-8 (MAC precursor of C5b, C6, C7 and C8) assembled on E. coli (human) (UniProt P01031); assay: flow cytometry on cells; E. coli MG1655 labelled with C5b-7 (10% C8-depleted serum, 30 min), washed, 10 nM C8 for 15 min, then 20 nM Cy5-labelled C9 for 30 min, no DTT; RPMI + 0.05% HSA; geoMFI
[3] = molecular target: C5b-8 (MAC precursor of C5b, C6, C7 and C8) assembled on E. coli (human) (UniProt P01031); assay: flow cytometry on cells; complement-sensitive E. coli (MG1655, BW25113, MC1061, 547563.1, CGSC7740 wildtype) in 3% C9-depleted serum with 25 nM Cy5-labelled C9 for 30 min at 37 C; Syto9 trigger; MFI
[4] = molecular target: C5b-8 (MAC precursor of C5b, C6, C7 and C8) assembled on E. coli (human) (UniProt P01031); assay: flow cytometry on cells; complement-resistant E. coli that express LPS O-Ag (552059.1, 552060.1, 567705.1, CGSC7740 wbbL+) in 3% C9-depleted serum with 25 nM Cy5-labelled C9 (up to 10-fold more on 552059.1) for 30 min at 37 C; MFI
[5] = molecular target: C9 TMH-1 lock mutant (C9_(TMH-1 lock), F262C V405C) (human) (UniProt P02748)
[6] = molecular target: C9 TMH-1 lock mutant (C9_(TMH-1 lock), F262C V405C) (human) (UniProt P02748); remark: listed apart in the source
[7] = molecular target: C5b-8 (MAC precursor of C5b, C6, C7 and C8) assembled on E. coli (human) (UniProt P01031); assay: flow cytometry on cells; as a1 but Cy5-labelled C9 added with 10 mM DTT (the methods give 20 nM C8 added 15 min before C9 at RT)
[8] = molecular target: C9 TMH-1 lock mutant (C9_(TMH-1 lock), F262C V405C) (human) (UniProt P02748); assay: SDS-PAGE of SDS-stable polymeric-C9, in-gel Cy5 fluorescence; as a3 but 20 nM Cy5-labelled C9 incubated with the C5b-8 labelled bacteria in 10 mM DTT

Sequence of wildtype C9 (C9wt) (P02748 22-559): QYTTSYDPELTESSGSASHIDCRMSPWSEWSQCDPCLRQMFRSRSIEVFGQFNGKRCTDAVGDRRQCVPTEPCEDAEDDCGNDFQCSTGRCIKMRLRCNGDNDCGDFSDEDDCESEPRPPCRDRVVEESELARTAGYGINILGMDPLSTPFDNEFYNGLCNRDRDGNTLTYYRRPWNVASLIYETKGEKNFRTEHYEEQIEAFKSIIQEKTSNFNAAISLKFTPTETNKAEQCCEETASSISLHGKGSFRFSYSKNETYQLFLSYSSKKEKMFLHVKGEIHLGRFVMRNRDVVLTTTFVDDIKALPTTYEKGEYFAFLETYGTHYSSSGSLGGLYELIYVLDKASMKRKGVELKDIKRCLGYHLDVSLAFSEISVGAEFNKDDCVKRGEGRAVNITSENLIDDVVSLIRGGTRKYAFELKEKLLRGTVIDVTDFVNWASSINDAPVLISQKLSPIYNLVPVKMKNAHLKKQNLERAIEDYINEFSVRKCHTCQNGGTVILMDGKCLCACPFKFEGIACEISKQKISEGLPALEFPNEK

| fold binding against C9 (TMH-1 lock) [1] [fold] | fold binding against C9 (TMH-1 lock) [2] [fold] | fold binding against C9 (TMH-1 lock) [3] [fold] | fold binding against C9 (TMH-1 lock), on CGSC7740 wildtype [3] [fold] | fold binding against C9 (TMH-1 lock), on 552059.1 with up to 10-fold more C9 [4] [fold] | fold binding against C9 (TMH-1 lock), on CGSC7740 wbbL+ [4] [fold] | fold binding with DTT against C9 (TMH-1 lock) without DTT [7] [fold] | fold lower binding against C9wt with DTT [7] [fold] | fold lower polymeric-C9 detection against C9wt with DTT [8] [fold] | Substance | bacterial viability (CFU) of C5b-8 labelled E. coli MG1655 with 100 nM C9, decrease compared to C5b-8 alone [5] [fold] | bacterial viability (CFU) of E. coli MG1655 in 3% C9-depleted serum with 25 nM C9 after 30 min, against C9wt [6] [fold] | outer membrane damage (DiOC2) and inner membrane damage (Sytox) of E. coli MG1655 in 3% C9-depleted serum with 25 nM C9, delay against C9wt [6] [min] |
| --- | --- | --- | --- | --- | --- | --- | --- | --- | --- | --- | --- | --- |
| < 10 | 10 | 5 to 15 | 12 | 2 to 3 | 2.5 | – | – | – | wildtype C9 (C9wt) (from UniProt P02748 22-559) (natural protein) | – | – | – |
| – | – | – | – | – | – | 3 | 2 to 3 | 2 to 3 | C9 TMH-1 lock mutant (C9_(TMH-1 lock), F262C V405C) (from UniProt P02748 22-559) (natural protein) | 10 | 1000 | 30 |
